{
  "source": "the DeepSol protein solubility set",
  "data": [
    {"assay": "soluble on expression in E. coli; label from the status in PepcDB or PDB records", "values": [
      {"sequence": "MGSDKIHHHHHHMIVINMFSSANKVAGQGVGAVYTELMGLLKHDFSNEFEVNVNRYTRSDISHYHTIDPKFYLSTFSKKRGRKIGFVHFVPSTLDASLKLPRVARWTLDKYTLAFYKRMDQLVVVNPNFIPKLEAYGISRDKVTYIPNFVSQRTFHPVSTEKRQALRHANGFKPDDFVIFGAGQVQDRKGVSDFIKLAKQNPEFRFVWAGGFSFGRITEGYDHLKKAVAEAPANLDFTGIMPRETMIDYYNMADVFLLPSYEELFPMSVLEAFATGTPVMVRDLELYHQIITPYAITAVDVDDMQSRLRALADDHDLLATYATKSRQAAEVYDESRLEKVWHDFYLHQAALGKH", "soluble on expression in E. coli": "not soluble"},
      {"sequence": "MGHHHHHHSHMLEILYQDEWLVAVNKPSGWLVHRSWLDRDEKVVVMQTVRDQIGQHVFTAHRLDRPTSGVLLMGLSSEAGRLLAQQFEQHQIQKRYHAIVRGWLMEEAVLDYPLVEELDKIADKFAREDKGPQPAVTHYRGLATVEMPVATGRYPTTRYGLVELEPKTGRKHQLRRHLAHLRHPIIGDSKHGDLRQNRSGAEHFGLQRLMLHASQLSLTHPFTGEPLTIHAGLDDTWMQALSQFGWRGLLPENERVEFSAPSGQDGEISS", "soluble on expression in E. coli": "soluble"},
      {"sequence": "MIFVLGGTSDSLLISDWLTETKRPFILSVATDYGETLAKQHAEKVFCGRLAKEAMLAKWQLEQIKLVIDATHPFATIVSETAMEACKEAGIPYIRFERTSEQTDNTYLVDDINEACKVAAKLGQRIFLTTGSKNLPEFVAGLKQQHIIARILPVSDVIRSAEELGLVADQIIGMKGPFTKEANRTQLEMTQADVLITKESGKQGGFQEKLTAAAELNIPVIVIRRKKLNYPIEINHLTELPEILTQLEV", "soluble on expression in E. coli": "not soluble"},
      {"sequence": "MSIYKIPLPLNILEAARERITWTLNTLPRVCVSFSGGKDSGLMLHLTAELARQMGKKICVLFIDWEAQFSCTINYVQSLRELYTDVIEEFYWVALPLTTQNSLSQYQPEWQCWEPDVEWVRQPPQDAITDPDFFCFYQPGMTFEQFVREFAEWFSQKRPAAMMIGIRADESYNRFVAIASLNKQRFADDKPWTTAAPGGHSWYIYPIYDWKVADIWTWYANHQSLCNPLYNLMYQAGVPLRHMRICEPFGPEQRQGLWLYHVIEPDRWAAMCARVSGVKSGGIYAGHDNHFYGHRKILKPEHLDWQEYALLLLNSMPEKTAEHYRNKIAIYLHWYQKKGIEVPQTQQGDIGAKDIPSWRRICKVLLNNDYWCRALSFSPTKSKNYQRYNERIKGKRQEWGILCNND", "soluble on expression in E. coli": "not soluble"},
      {"sequence": "MRISLPVAEAAAAGGRAGKHGKAITFLTPDDTAVYFDLKQVKIVDGHLPTHVFSLNCLRRYARMDSRNMMLHGANLDNSHLDVKVNFLFENFKHFSVFLKLTKSSK", "soluble on expression in E. coli": "soluble"},
      {"sequence": "MEDDAPMNLCNEQFEEIEDSPIDDNDNESFYNADGDVELEEEEVHETPKNFKNGGRFKTNMTNPKVNDLTTIEEKNEDLRSAASSRSASRPASVMSDKSFSSQFEFQSGGENAIEEYTNQVFADENKADLLFPETSKFMNGASPPKDKHHSWEPSIHHYDKQPPPDIQTNSPVFGNLNHRKNKLIPQARAKPGANDNEIVERDNDENVPTTSDKSAFITSPMNSTNHDEKTSTPKRPTNRKIGQYQGPNFDLSSIYVGSPQHQNTSISTGQQMPTSSYSHAHSETMMTNQTINESMVRRVLNGNNKNQDLFAALEEARKRRAAQPSKPDFRINTTRTRVPIKPTSARHSGNVVSSTSNDNTTAASSKDLTTSRKAMETFRQNASMADATNSNTASMTSILSTISTARTDISRSSRNHGGGFSNTSVSTVIPANNGNVSLSHGRDGRDSVSSVRTMSRASSTSTVYAGSTFSGVSKPLRIHAKRVAFGCVAVGETLRVEVEVENISDRQCLVRASTDSTTPVYQILDNKLTMVDPKKSIKFQVSFSPSSVGRYQVIMSIEVPAQNFIHKIPMWGNGGIAKFVPTSPDLQQTINQSEYAMCTSCAKRISFKISNSAGTRDGFAMIKVFDSAMRQLPDGCVAFFPAPGFIVKKKSDKRVDIRIDSSYIDLHDENNFRTSSSLSTASTTSSFQRRILPGAKFFVHVVWGEETMRTRLRLLEVRTGQHQLIDGHDFTSFQFSDEEVLRAVPVGFPAIKPEDRDLFAASYRSFFINFFTSTTEFRAATSRKKKEICSNDDSTLLETTAFRNQTFVNDVTIVPNTRFSNRK", "soluble on expression in E. coli": "not soluble"},
      {"sequence": "VHEGHRKRLKERFLREGLDSFEQHQVLELLLFFSIPRKDTNELAHTLLNRYGSLSGVFEADPKDLATTPGIGENSAILLSLIPHLSRRYLNDKWRDKPELNSSAKAGQYAISLFAGRNYEVFYVICLDAQNRVNYAELVHEGTINEAPVYPRIIVETALRHKANSVILAHNHPGGTLNPSKADIEATKRIKAALEAISIKVVDHIIVCGGQYVSFAEKGLLSG", "soluble on expression in E. coli": "soluble"},
      {"sequence": "MTARVAGQAVGGQILVGEPVHDAVSDCADIRFGSYRLFSLDAAPGPDLD", "soluble on expression in E. coli": "not soluble"},
      {"sequence": "MGSDKIHHHHHHMELTESIRLLFPPEERAQLDISAIKGDASNRQYYRVTGQGSVSVVCADPAFRATAVENYPFLIVRDLFARHGIRVPELLGMVHEQGLLRLEDCGDLMLQDEVPLLDRNRLSARYRQVIDLLVRIQSIRPDKDALTTTLPFSLSFDHEKLMFEFDFFIEHALNGYFAGRLGKPAIARLREEFINICDLLVLPKHFVLNHRDFHSRNIMLFRAEPVVIDFQDARLGLPQYDAVSLLRDSYVRLDPGMVNELKRYHFNQLVQLGLTSMGEAEYLRLFDLMAFQRNVKAIGTFCYQTTVAGNRTFEPSIAATLSYLREYIEARPELAMAGRLLKPIIPEISR", "soluble on expression in E. coli": "not soluble"},
      {"sequence": "MRIEDKLYLNRYRTDEENPHLKIKDESICAEKCSDRPCVSCCPADVYEWTESGMEVKFEGCLECGTCRIVCPFGNIEWNYPRGNYGVLYKFG", "soluble on expression in E. coli": "soluble"},
      {"sequence": "MSSNECFKCGRSGHWARECPTGGGRGRGMRSRGRGGFTSDRGFQFVSSSLPDICYRCGESGHLAKDCDLQEDACYNCGRGGHIAKDCKEPKREREQCCYNCGKPGHLARDCDHADEQKCYSCGEFGHIQKDCTKVKCYRCGETGHVAINCSKTSEVNCYRCGESGHLARECTIEATA", "soluble on expression in E. coli": "soluble"},
      {"sequence": "MSTPLSRVITNEIFRVPARRKPKPAVKPSDIPTLKDYTARLVDQKWLRLAARRKSA", "soluble on expression in E. coli": "not soluble"},
      {"sequence": "MKPFVPKLVYFEPEALSYPLGQELYEKFTQMGIEIRETTSHNQVRGIPGETELARYRNAKSTLVVGVRRTLKFDSSKPSAEYAIPLATGCMGHCHYCYLQTTLGSKPYIRVYVNLDDIFAQAQKYIDERAPEITRFEAACTSDIVGIDHLTHSLKKAIEFIGATDYGRLRFVTKYEHVDHLLDAKHNGKTRFRFSVNSRYVINHFEPGTSSFDARLQAARKVAGAGYKLGFVVAPIYRHDGWEQGYFELFQELARQLEGVDLSDLTFELIQHRFTKPAKRVIEQRYPKTKLDLDESKRKYKWGRYGIGKYVYRDKEARELEETMCSYIARFFPSAQVQYFT", "soluble on expression in E. coli": "not soluble"},
      {"sequence": "MPKRAVSFADDIETRVFKRDKREIEDGILDIPMEEDVVKERPGNADEDEEEKKKFHTLESDEEEEEDHKRLDTRRVEGQEDCGVDFDGSIKITAFNMKEDEEEGHFDETGNFIFDKKTKDVQDAWLDGIDWSLVKKKAGDQWEGDEDKKSLEDEEPEPITMSDARKKEIFEQLVNLLKPNQTVAKALSELKKKKGLSAAEERKLRWAAKKAGKSFEPTDGQKETSQLSGLADELISAGIMDAYEWHREKFNFQLQKMISTAADELDMFSDEPTSTGAARAAGAPMEQEEEEADDSVKWEYKANEEAKIEVEYEKTDDFGEIRVNKIGPIPTSEMMDRQSKGLLSAEGVARRSGTNGHFNPVARIDFELYL", "soluble on expression in E. coli": "soluble"},
      {"sequence": "MGSDKIHHHHHHMNATQTQMRREINEIPDAVERLLTEGAGAVAATAADIRDLQPSYLLSVARGSSDHASTYLKYASELLLGLPMASVGPSVKSIYGVDLHCKGALSISVSQSGKSPDIVQLTSAFRDKGAYTVAITNDAGSPLAETAAAVLPIHAGPELSVAATKTFVTSLVAGLWVLAEVKQDAALLEAILRLPGHLAKAKDCDWSAAIEAIDGQSLYTLGRGPSWAISNEAALKFKETCQIHAESYSAAEVLHGPVSIVGENFPVIAFAAADAAEESVGEMVAALGDKGARVFATTHKAKGAEVLPHVRTDHWITDPIASIVSFYGMVEAVAARRGVNPDAPRHLNKVTETV", "soluble on expression in E. coli": "not soluble"},
      {"sequence": "MPRKQLKGETHDQKAQIASAFGEIEQSKIFLDKRSESAAVKMDIADLLKEIIQKQLRKDYDPEVESNIFINPERGDFEVYILKKIVKEVDLPTIEIGLDEVRQIDDSLELGDYYEEGPIKLDDYLTRKSIQIIKQSVQKKVRDLERLAVYEECLEKVGEVVAGEVYQVRPNEVIFTYNTSKDHRVELVLPKSEMMKKDNPRRTPRMKLYVKRIEREKVKVRNDDGTVEEREKPDGGMKVIVSRVDDRFLYKLFESEVPEILDGLIVIKGIARVPGERAKVAVESTSSRIDPVGATVGYRGKRIQSIVKELNNENIDVIYYTDEPQVFIARALQPAKIDPMTVHADMKTRKARVMLKPDQIKYAIGKNGNNIHLAEKLTGYEIDVYRDVIDKSLEDPNDIDIIEFREEFGDDMIYQLLDGGLDTAKKILKGGVEKIEEALLGTQKSEELFVFNKTRKPVKPKERRITDDEKRYWKKIAETIYRTVREQFNDEDLKALLDDSHERSLKGDGIDPEEIRDKETNLEHHHHHH", "soluble on expression in E. coli": "not soluble"},
      {"sequence": "MEQPTRPGFATRRRTQLFDALVDLILVEGFAHLTLDEIANRLRCSKSTLYTLAGSKEQLVRAATVHFFRRATDDVESHIEPIAGARERITAYLSAVGTALSAASDQFMADLDAFPPAREVYERNTQFAAGRVQELITEGVAGGDFRDVHAAFAADLAATMMVRIQQRGVRDSTGLDDAHAYAELAAILTGGISA", "soluble on expression in E. coli": "not soluble"},
      {"sequence": "MSLERKRVLVKFSGEALAGENGFGIENSILKFIASEIKELIKNQIEVGIVIGGGNIIRGVSAAKGGLIKRTSGDHMGMLATVINAIAIQEALESSGLEVRVQSAIQMEAFCETYIMRRAQRHLEKGRVVVFAAGTGNPYFTTDTTAILRAVEIDADMVIKATKVNGVYDKDPKQFDDAVFLNTLSYDEAMQDNIKVMDDTAIALAKDNKLPIVVCNMFEEGNLLKIIQGDTSLCSTVKNNEGHHHHHH", "soluble on expression in E. coli": "soluble"},
      {"sequence": "MSIASVASVFKGEHAVGSTVTVRGWVRTRRDSKAGISFLAVYDGSCFNPIQGVVPNSLENYDNEVLKLTAGCSVIVTGDIVESPGAGQAYELQVTAVEVTGWVEDPDTYPMAAKRHSIEHLRELAHLRPRTNIIGAVARVRNCLSQAIHRFYHENGFVWVSTPLITASDCEGAGEMFRVSTLDMENLPRTSDGKVDYDKDFFGKEAFLTVSGQLNGETYACALSKIYTFGPTFRAENSNTSRHLAEFWMVEPEVAFATLNDIAGLAEGMLKYAFNAVLTERMDDLQFFAQHVDKTVIERLQSFVSSDFAQVDYTDAVEILQKSGREFEFPVSWGIDLSSEHERYLAEEHFKAPVVVKNYPKDIKAFYMRLNEDGKTVAAMDVLAPGIGEIIGGSQREERLDVLDMRLEEMDLNKEDYWWYRDLRRYGTVPHAGFGLGFERLVSYVTGVSNIRDVIPFPRAPRTANFLEHHHHHH", "soluble on expression in E. coli": "soluble"},
      {"sequence": "MSLHSTPAPVASPLPSALDEAARLAVLHGLCLLDSPPDPVFDTIAAMAARMLGTEIALVSLVDEHRQWFKARVGLEAPETPRKHAFCAHALRSDDVLVIPDALLDPRFCNNPLVLGAPHIRFYAGAPLKLRDGHTIGTLCVIGTSPRAGLDAEQRIQLEGLRDLAVLRVENLRSSTYRNGPTGLPNRARFSEDLDAVLLQRTADSAATAIAVDLCGSDYFRDMVKALGWDYADGYVALAYKRLISKLPAGTALYRLDTTTFAFMVTTADPLRLSALCSKISKGFVAPLEHQGIPHTAVASIGAVLLETSYGAADTLRSLTTSVDVAREHCLTWSLYEREGHHHHHH", "soluble on expression in E. coli": "soluble"},
      {"sequence": "LDDYDWFAGNISRSQSEQLLRQKGKEGAFMVRNSSQVGMYTVSLFSKAVNDKKGTVKHYHVHTNAENKLYLAENYCFDSIPKLIHYHQHNSAGMITRLRHPVS", "soluble on expression in E. coli": "soluble"}
    ]}
  ]
}
